# Laboratory results reported in patent US20140363427A1 (CRUCELL HOLLAND B V, published 2014).
# B1: IgG form of 30D8 (antibody, V domains shown)
# VH: EVQLLQSGAELKKPGASVKISCKTSGFTFSGHTIAWVRQAPGQGLEWMGWVSTNNGNTEYAQKIQGRVTMTMDTSTSTVYMELRSLTSDDTAVYFCAREWLVMGGFAFDHWGQGTLLTVSS
# VL: QSVLTQASSVSVAPGQTARITCGANNIGSQNVHWYQQKPGQAPVLVVYDDRDRPSGIPDRFSGSNSGNTATLTISRVEAGDEADYYCQVWDSSRDQAVIFGGGTKLTVLG
# notes: also called IgG 30D8; 30D8 Mab
# B2: Fab 17C9 (Fab, V domains shown)
# VH: QVQLQQWGAGLVRPSETLSLTCAVYGDSFNDYFWTWIRQTPGKGLEWIGEISHSGSTNYSPSLKSRVTISVDTSKNQFSLKLSAVTAADTTVYFCARGVRSRPPPSYRGSGSPPYYHYGMDVWGQGTTVTVSS
# VL: EIVLTQSPSTLSASVGDRVTITCRASQNINTWLAWYQQKPGKAPKLLIYAASFLQSGVPSRFSGSGSGTDFTLTISNLQPEDFATYFCQQANSFPRTFGQGTKVEVKR
# notes: also called 17C9 Fab
# B3: Fab 69F6 (Fab, V domains shown)
# VH: QMQLVQSGAEVRKPGESLKIACKGSGYSFTSYWIAWVRQMPGKGLEWLGIIFPNDSDATYSPSFQGQVTMSVDKSISTAYLQWNSLKASDTAVYFCARQYYLGSFESWGQGTTVTVSS
# VL: EIVLTQSPSSLSASVGDRVTISCQASQDISNYLNWYQQKPGKAPRLLIYDASYLDTGVPSRFSGSGSGTDFTFTISSLQPEDFATYYCQQYDDLRGGFTFGPGTKVDVKR
# notes: also called 69F6 Fab
# B4: Motavizumab IgG (antibody, V domains shown)
# VH: QVTLRESGPALVKPTQTLTLTCTFSGFSLSTAGMSVGWIRQPPGKALEWLADIWWDDKKHYNPSLKDRLTISKDTSKNQVVLKVTNMDPADTATYYCARDMIFNFYFDVWGQGTTVTVSS
# VL: DIQMTQSPSTLSASVGDRVTITCSASSRVGYMHWYQQKPGKAPKLLIYDTSKLASGVPSRFSGSGSGTEFTLTISSLQPDDFATYYCFQGSGYPFTFGGGTKVEIK
# B5: Fab 56E11 (Fab, V domains shown)
# VH: EVQLQESGPGLVKPSETLSLTCSVSGVSINSNNYFWAWIRQPPGKGLEWIGNIYYGGSTHYNASLQSRVTISVDTSKSQFSLKLNSVTSADTAVYYCAASESIFWDYYYGLDVWGQGTTVTVSS
# VL: QAVLTQPPSASGSPGQSVTISCTGTSSDVGGYNYVSWYQQHPGKAPRLIISEVTKRPSGVPGRFSGSKSGNTASLTVSGLQAEDEADYYCSSYAGSRHVVFGGGTKLTVLG
# notes: also called 56E11 Fab
# B6: Fab 104E5 (Fab, V domains shown)
# VH: QVQLEQSGAEVKKPGSSVKVSCKPSGGTFDTYTISWVRQAPGQRLEWLGRIIPSLGETNYAHKLQGRVTITADKATSVVYMDLSDLTSEDAAVYYCAFRITGPVDWVWDYGMDVWGQGTTVSVSS
# VL: DIQMTQSPSSLPASVGDRVTITCRASQNIKTYLNWYQQKPGRAPKLLISAVSNLQSGVPSRFSGTGSGTDFTLTISSLQPEDFATYYCQQSFSIPLTFGGGAKVEIKR
# B7: Fab 38F10 (Fab, V domains shown)
# VH: EVQLLESGGDVVQPGKSLRLSCTASGFSITDFGIHWVRQAPGKGLEWVALISYNEVNIHYGESVRGRFTISRDIAKNTVYLQMNGLRPEDTGVYFCARDVWEDSWLSLACFQEWGQGSLVVVSS
# VL: DIQLTQSPPTLSASVGDRVSMTCRASQSISNWLAWYQQKPGKAPKLLIQKASNLEDGVPSRFTASGFGTEFTLTISSLQPDDFATYYCQQYNSYSGLSFGGGTKVDIKR
# B8: IgG form of 56E11 (antibody, V domains shown)
# VH: B5 VH
# VL: B5 VL
# B9: IgG form of 69F6 (antibody, V domains shown)
# VH: B3 VH
# VL: B3 VL
# B10: IgG form of 14G3 (antibody, V domains shown)
# VH: QVQLQESGPGLVKPSQTLSLTCTVSGASISSDNHYWSWIRQPPGKGLEWIASIYYTGGTNYNPSLKSRLALSIDTSGDQFSLKLSSVTAADTAVYYCVRGLFFITARPYWYFDLWGRGTLVAVSS
# VL: DVVMTQTPLSLSVTPGEPASISCRSSQSLLDSDDGNTYLDWYLQKPGQSPQLLIYTLSYRASGVPDRFSGSGSGTDFTLKISRVEADDVGIYYCMQRMEFPFTFGQGTRLDIKR
# B11: IgG form of 17C9 (antibody, V domains shown)
# VH: B2 VH
# VL: B2 VL
# B12: IgG form of 104E5 (antibody, V domains shown)
# VH: B6 VH
# VL: B6 VL
# B13: IgG form of 38F10 (antibody, V domains shown)
# VH: B7 VH
# VL: B7 VL
# B14: Fab 30D8 (Fab, V domains shown)
# VH: B1 VH
# VL: B1 VL
# B15: Fab 90D3 (Fab, V domains shown)
# VH: QVQLVESGGGLVKPGGSLRLSCVGSGFTLKNYEMNWVRQAPGQGLQYISYISSSGNVVKYVDSVQGRFTISRDNAGNSLYLQMNNLRAEDTATYYCVRGFSIDKYDSSVDEYWGQGIAVTVSS
# VL: AIRLTQSPSSLSASVGDRVSITCRASQSISNFLNWYQQKPGRAPKLLISAASSLQGGVPSRFSGSGSGTDFTLTISSLQPEDFATYYCQQTYISLYTFGQGTKLEIKR
# Molecular target: T1, RSV F A2 mutant V278M (human RSV, A2 strain, UniProt P03420 26-574)
# T1 construct: whole, on cells
# Experiment: mutant F in HEK 293 cells
row,Binder,ratio of binding 58C5/30D8
1,B1,3.1

# Molecular target: F protein of the parental RSV A2 strain (Example 11) (Respiratory Syncytial Virus strain A2, UniProt P03420 26-574)
# Experiment: cell-based or functional assay
row,Binder,"ED50, plaque reduction, RSV A2 parental [pM]"
1,B2,436
2,B1,96
3,B3,256

# Molecular target: F protein of the parental RSV A2 strain (Example 11) (Respiratory Syncytial Virus strain A2, UniProt P03420 26-574)
# Experiment: cell-based or functional assay
# Remark: another data set of the same source
row,Binder,"ED50, plaque reduction, RSV A2 parental [pM]"
1,B4,519

# Molecular target: T2, recombinant RSV F protein, strain A2, extracellular domain (Respiratory Syncytial Virus strain A2, UniProt P03420 26-524)
# T2 construct: also called RSV F1 lysate (recombinant); RSV F lysate
# Experiment: ELISA, purified Fab, estimated EC50
row,Binder,EC50 [pM]
1,B2,136
2,B5,545
3,B3,135

# Molecular target: T3, native RSV F protein from the RSV A2 strain (Respiratory Syncytial Virus strain A2, UniProt P03420 26-574)
# T3 construct: also called HEp2 lysate (native); purified RSV F protein (native)
# Experiment: ELISA, purified Fab, estimated EC50
row,Binder,EC50 [pM]
1,B6,80
2,B7,177

# Molecular target: T2, recombinant RSV F protein, strain A2, …
# Experiment: comparison of ELISA EC50
row,Binder,fold less affinity than the IgG form of 30D8 [fold]
1,B8,~10
2,B9,~10

# Molecular target: T2, recombinant RSV F protein, strain A2, …
# Experiment: ELISA, IgG titrated, estimated EC50
row,Binder,EC50 [pM]
1,B8,73
2,B9,63
3,B10,251

# Molecular target: T3, native RSV F protein from the RSV A2 …
# Experiment: ELISA, IgG titrated, estimated EC50
row,Binder,EC50 [pM]
1,B11,59
2,B12,14.5
3,B4,27
4,B13,35

# Molecular target: F protein of RSV B-wash (strain 18537) (respiratory syncytial virus B, strain …, UniProt P13843 26-574)
# Experiment: cell-based or functional assay
row,Binder,"ED50, plaque reduction, RSV B/wash [pM]"
1,B11,860
2,B1,115
3,B12,8000
4,B8,282
5,B9,> 67000
6,B10,4500
7,B4,2900
8,B13,5300

# Molecular target: T3, native RSV F protein from the RSV A2 …
# Experiment: cell-based or functional assay
row,Binder,"ED50, plaque reduction, RSV A2 [pM]"
1,B11,363
2,B1,89
3,B12,800
4,B4,360
5,B13,553

# Molecular target: F protein of RSV B-1 (respiratory syncytial virus B-1, UniProt O36634 26-574)
# Experiment: cell-based or functional assay
row,Binder,"ED50, plaque reduction, RSV B-1 [pM]"
1,B11,329
2,B1,55
3,B12,1700
4,B8,295
5,B9,> 67000
6,B10,10700
7,B4,833
8,B13,1400

# Molecular target: T3, native RSV F protein from the RSV A2 …
# Experiment: cell-based or functional assay
# Remark: another data set of the same source
Binder,"ED50, plaque reduction, RSV A2 [pM]","ED50, plaque reduction, RSV A2 (mass concentration) [µg/mL]"
B2,352,–
B14,107,–
B6,580,0.029
B15,800,–
B5,930,–
B3,260,–
B7,800,0.04
